Results on one molecule are retold here after US20210063414A1, “METHODS FOR PREVENTING AND/OR TREATING BONE LOSS CONDITIONS BY MODULATING IRISIN” (Dana-Farber Cancer Institute, Inc., priority 2018, published 2021).

For this assay, the target named is T1, MLO-Y4 cell surface proteins (Mus musculus, UniProt B1AVY7).
T1 construct: endogenous in cells; host or cells: MLO-Y4
T1 sequence (B1AVY7 1-1312): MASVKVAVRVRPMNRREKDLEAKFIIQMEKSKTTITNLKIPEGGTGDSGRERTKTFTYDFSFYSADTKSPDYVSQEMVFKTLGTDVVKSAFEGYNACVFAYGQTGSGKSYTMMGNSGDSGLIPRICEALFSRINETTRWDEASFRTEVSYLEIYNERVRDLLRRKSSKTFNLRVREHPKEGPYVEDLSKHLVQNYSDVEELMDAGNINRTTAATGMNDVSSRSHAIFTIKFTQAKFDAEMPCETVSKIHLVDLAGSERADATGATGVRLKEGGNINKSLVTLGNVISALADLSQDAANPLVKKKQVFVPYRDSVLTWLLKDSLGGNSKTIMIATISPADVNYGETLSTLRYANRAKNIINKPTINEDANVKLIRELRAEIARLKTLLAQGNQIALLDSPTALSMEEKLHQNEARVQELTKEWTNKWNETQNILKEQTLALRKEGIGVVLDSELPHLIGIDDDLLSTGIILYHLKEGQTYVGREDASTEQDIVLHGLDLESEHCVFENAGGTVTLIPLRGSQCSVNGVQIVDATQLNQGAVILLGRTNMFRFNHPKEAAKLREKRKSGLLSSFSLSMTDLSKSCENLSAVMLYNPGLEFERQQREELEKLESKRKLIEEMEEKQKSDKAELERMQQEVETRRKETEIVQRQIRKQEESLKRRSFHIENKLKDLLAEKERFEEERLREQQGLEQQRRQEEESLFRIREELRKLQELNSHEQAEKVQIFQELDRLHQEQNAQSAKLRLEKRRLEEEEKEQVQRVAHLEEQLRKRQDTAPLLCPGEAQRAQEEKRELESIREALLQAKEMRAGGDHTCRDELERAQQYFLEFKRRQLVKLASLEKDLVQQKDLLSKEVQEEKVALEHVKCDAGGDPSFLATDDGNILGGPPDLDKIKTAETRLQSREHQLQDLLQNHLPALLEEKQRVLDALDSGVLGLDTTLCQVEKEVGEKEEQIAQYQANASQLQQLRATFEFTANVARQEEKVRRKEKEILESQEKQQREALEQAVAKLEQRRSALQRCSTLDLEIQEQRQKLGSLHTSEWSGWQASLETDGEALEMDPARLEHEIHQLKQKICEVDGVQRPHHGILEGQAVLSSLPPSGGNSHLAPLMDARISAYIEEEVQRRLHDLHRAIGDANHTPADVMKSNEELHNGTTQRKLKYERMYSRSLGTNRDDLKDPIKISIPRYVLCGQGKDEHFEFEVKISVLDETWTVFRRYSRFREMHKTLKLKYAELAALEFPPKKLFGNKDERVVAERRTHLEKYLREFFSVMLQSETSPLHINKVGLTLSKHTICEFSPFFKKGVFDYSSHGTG
The assay is described as follows: Crosslinking/co-immunoprecipitation/mass spectrometry (TMT quantitative proteomics) to identify irisin receptors. In kind it is binding. The conditions noted are these: co-precipitated protein Kif16b (KI16B_MOUSE). Put shortly:
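Relative protein abundance came from 6-plex TMT MS3 quantitation on an Orbitrap Fusion Lumos, after in-gel trypsin digestion of Coomassie-stained SDS-PAGE lanes. Input was a Ni-NTA pulldown (250 mM imidazole elution) of lysates from murine MLO-Y4 cells. These cells were treated on ice with His-tagged irisin or adipsin (10 nM, 20 min) in serum-free medium, then crosslinked with 1.5 mM DTSSP for 30 min.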

B1: irisin: secreted cleaved form of FNDC5; recombinant human/mouse irisin with C-terminal his tag produced in HEK293 cells (protein)
chain: DSPSAPVNVTVRHLKANSAVVSWDVLEDEVVIGFAISQQKKDVRMLRFIQEVNTTTRSCALWDLEEDTEYIVHVQAISIQGQSPASEPVLFKTPREAEKMASKNKDEVTMKE
modifications: left off: small tags and cut ends
notes: secreted cleaved form of FNDC5; recombinant human/mouse irisin with C-terminal his tag produced in HEK293 cells
Turning to B1, the TMT signal-to-noise ratio is reported as 528.649 and the “irisin/adipsin TMT signal-to-noise ratio” value turned out to be 0.473.
